The text below walks through data of article PMC6279242 (Cell host & microbe, 2018).

This assay concerns the target T1, GST-SIK1ΔN (Arabidopsis thaliana, UniProt O24527 249-836).
T1 sequence (looked up): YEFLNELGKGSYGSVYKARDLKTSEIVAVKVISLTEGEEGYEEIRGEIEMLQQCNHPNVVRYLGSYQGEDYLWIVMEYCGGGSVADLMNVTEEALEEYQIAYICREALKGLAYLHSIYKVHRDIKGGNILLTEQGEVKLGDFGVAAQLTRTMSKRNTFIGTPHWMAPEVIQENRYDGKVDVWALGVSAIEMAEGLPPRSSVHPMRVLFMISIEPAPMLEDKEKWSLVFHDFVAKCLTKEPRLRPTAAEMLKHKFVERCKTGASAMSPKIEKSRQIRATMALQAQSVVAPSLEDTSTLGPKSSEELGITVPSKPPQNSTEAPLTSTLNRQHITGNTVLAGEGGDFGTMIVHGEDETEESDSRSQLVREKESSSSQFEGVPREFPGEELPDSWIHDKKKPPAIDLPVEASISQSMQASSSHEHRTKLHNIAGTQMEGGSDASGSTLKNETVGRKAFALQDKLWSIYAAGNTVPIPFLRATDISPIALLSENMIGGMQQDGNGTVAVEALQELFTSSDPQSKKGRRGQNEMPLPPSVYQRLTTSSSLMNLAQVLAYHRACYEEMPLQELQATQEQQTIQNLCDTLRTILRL
The experiment in a line: pull-down.

B1: MBP-BIK1 (enzyme, Arabidopsis thaliana, UniProt O48814 1-395, looked up)
chain: MGSCFSSRVKADIFHNGKSSDLYGLSLSSRKSSSTVAAAQKTEGEILSSTPVKSFTFNELKLATRNFRPDSVIGEGGFGCVFKGWLDESTLTPTKPGTGLVIAVKKLNQEGFQGHREWLTEINYLGQLSHPNLVKLIGYCLEDEHRLLVYEFMQKGSLENHLFRRGAYFKPLPWFLRVNVALDAAKGLAFLHSDPVKVIYRDIKASNILLDADYNAKLSDFGLARDGPMGDLSYVSTRVMGTYGYAAPEYMSSGHLNARSDVYSFGVLLLEILSGKRALDHNRPAKEENLVDWARPYLTSKRKVLLIVDNRLDTQYLPEEAVRMASVAVQCLSFEPKSRPTMDQVVRALQQLQDNLGKPSQTNPVKDTKKLGFKTGTTKSSEKRFTQKPFGRHLV
As for B1, the binding result is reported as “binds”.
